Test results: the DeepSol protein solubility set

Test: soluble on expression in E. coli; label from the status in PepcDB or PDB records

Row | Sequence | soluble on expression in E. coli
1 | MSLNSAAQAQSSDPVVIGCPAPLTGIVAADGIEFQRGIQMAADEINAVGGILGRPIELVFADTQSKGVDVVIQSAQRLIDRDNASALIAGYNLENGTALHDVAADAGVIAMHANTVAVHDEMVKSDPDRYWGTFQYDPPETLYGGGFLKFLKDIEDNGEFSRPNNKIAIITGPGIYSVNIANAIRDGAGEYGYDVSLFETVAIPVSDWGPTLAKLRADPPAVIVVTHFYPQDQALFMNQFMTDPTNSLVYLQYGASLAAFRDIAGDNSVGVTYATVLGTLQDEMGDAFAKAYKERYGDLSSTASGCQTYSALYAYSIAAALAGGPGAPYDDVQNKAVADRLRSLIFRGPVGTMRFHADTQSAWSYPTETNDPSLGMPHIFSQIFDKAEDGVLIAPAPYKKAGFKMPPWMKGEGHHHHHH | soluble
2 | MISVNDFRTGLTISVDNALWQVLDFQHVKPGKGAAFVRSKLRNLRTGSVQEKTFRAGEKVEKAHIENRRMQYLYASGEAHVFMDNGTYEQIELGEKQIERELKFLKENMEVAIMTYQGEVLGVELPNTVELQVTETEPGIKGDTASNVTKPATLETGLVVQVPIFINEGEMLIINTGEGKYVSRA | not soluble
3 | SSWIPFKIGQPKKQIVSKTVERDFEREYGKLQQLEEQTKRLQKDMKKSTDADLAMSKSAVKISLDLLSNPLCEQDQDFLRMVTALDTAMKRMDAFNQEKVNQIQKTVIEPLKKFGSIFPSLNMAVKRREQALQDYGRLQAKVEKYEEKEKTGPVLAKLHQAREELRPVREDFEAKNKQLLDEMPRFYNSRLDYFQPSFESLIRAQVIYYSEMHKIFGDLTQQLDQPGHSDEHRERENETKLSELRALSIVADD | soluble
4 | MPKRAVSFADDIETRVFKRDKREIEDGILDIPMEEDVVKERPGNADEDEEEKKKFHTLESDEEEEEDHKRLDTRRVEGQEDCGVDFDGSIKITAFNMKEDEEEGHFDETGNFIFDKKTKDVQDAWLDGIDWSLVKKKAGDQWEGDEDKKSLEDEEPEPITMSDARKKEIFEQLVNLLKPNQTVAKALSELKKKKGLSAAEERKLRWAAKKAGKSFEPTDGQKETSQLSGLADELISAGIMDAYEWHREKFNFQLQKMISTAADELDMFSDEPTSTGAARAAGAPMEQEEEEADDSVKWEYKANEEAKIEVEYEKTDDFGEIRVNKIGPIPTSEMMDRQSKGLLSAEGVARRSGTNGHFNPVARIDFELYL | soluble
5 | MAEDIFRVATVEDAPEFLELLSSAFKSVKELGIDWPSTNADLAMVTENIVNSSAFVLERNGKLISTITVRFPWESSSPPSKYPFVWWFATAPELAGQGIGDKLLTYVEERVLRDTLKAPALTLGTSARKHPWLLDMYLRRGYEVYFEHEEDGDVGVMMRKILIPEKFDATLLGIPSWT | not soluble
6 | MNRIGFIGAGNMGTAMIRGLAQANLVKREEIIVGGRNLEKLKPLEAEFTGLQITTDTEKLVEQADIIILAVKPYTIPEILTSVKEKLTPDKIIISVAAGVTIQDLEELTSAKTKIVRVMPNTPALVGEAMSSVSPNTNVTSEELKEVTAIFTSFGEAEVVSENLMDAVIGVSGSSPAYVYMFIEALADGAVLSGMPRDKAYKFAAQAVLGAAKTVLETGEHPGKLKDMVTSPGGTTIEAVKSLENDGFRSAVINAVQAAAKKNSSMLEHHHHHH | soluble
7 | MGSDKIHHHHHHMVDFNNTLESAVKSVLKWEEKQIITETTIIRDVQGKVSLFLKSEQKATESDISNLEEILQNDLNGFFTGKIFWEKCDKKDKLRIEIIKSIIEESREEWKTEDGVDFYICERPIAKKAWVNATQDVEPVWQYQEAECSNKAKVVTFYSFKGGMGRTTALAGIALNLIEQNKNVMMIDMDIEAPGLSTLFFDDIVVEKGLLDYLIERPLNEQCDIHDYVLEVTDPALLKENDGNLYLMPAGKVDETYLQKLARIDYQDNRENNLKSSIKNLLEKLDNTYHPDYILIDARAGFHDMGGIAVAQIPHGAVLIGNGSKQSWDGMTQVIRTIAKGNTEEFSIMIVDSMCERATAERAIEQRKKFLNMAYTVCMENYYNEDQVMPGIDAEGVEHQPEYIPYDSELMQGFELFSDGYNDSEIRVQAYRDLLTGSAYKDITKRIQSWFGE | not soluble
8 | MIFVLGGTSDSLLISDWLTETKRPFILSVATDYGETLAKQHAEKVFCGRLAKEAMLAKWQLEQIKLVIDATHPFATIVSETAMEACKEAGIPYIRFERTSEQTDNTYLVDDINEACKVAAKLGQRIFLTTGSKNLPEFVAGLKQQHIIARILPVSDVIRSAEELGLVADQIIGMKGPFTKEANRTQLEMTQADVLITKESGKQGGFQEKLTAAAELNIPVIVIRRKKLNYPIEINHLTELPEILTQLEV | not soluble
9 | MGSDKIHHHHHHSEEIFNGQVTDGEHSGAQLNIVPTVSSESTETRAGFDPKTDWAAGDALGLFMYKSSGWGDAYPRYDAQNNKSTRQANGWSQASPVYLLVDKATIWAYYPYNQAVTDGTKIPVPINVGTSVDYMWGKSTNQVSVIETDARIPMKHALSQFVVRLKVSPEYHNDGNLTSAKLKATGAKFATTGTMNLNDGGKITFQPTSTELTWSPNTTVPAQGQQAVDYAAAIYPMTLAAGEVSLEVVIDGATYTYAIPQITWEAGKRYIYSITMRSNDAEIGGENGQSVTIEGWTSTEEDITLVPVK | not soluble
10 | MTTAHFYCQYCTASLLGKKYVLKDDSPYCVTCYDRVFSNYCEECKKPIESDSKDLCYKDRHWHEGCFKCTKCNHSLVEKPFAAKDERLLCTECYSNECSSKCFHCKRTIMPGSRKMEFKGNYWHETCFVCENCRQPIGTKPLISKESGNYCVPCFEKEFAHYCNFCKKVITSGGITFCDQLWHKECFLCSDCRKDLCEEQFMSRDDYPFCMDCYNHLYANKCVACSKPISGLTGAKFICFQDSQWHSECFNCGKCSVSLVGKGFLTQNKEIFCQKCGSGMDTDI | soluble
11 | MGSDKIHHHHHHMTRGIALFFWNRKKATKKISPEPEAAQEVWQRKKYRTNYYTYNSAKERGSLRSKKQRKHEIGEYKLEVGLAHLPRCFRRLSNLLLGTKGRFHQIDHVLISPYGIFLLEANNLSGLIVGEETESKWYQAITWRVKTFPNPIMENQVRVQMLQELAGLDQTIPVFSYVTFNRSCSLKVFSGMVFYDIDLPASIMQLAQNQPAVLSDEEILELVERIEKINLTDLGLRNEYAARQRRERMQYRPKYGDIRCSICQKAVNERMARYCLNRPEKFAWKIYCEKHQREMTRVVRREGGREGHGPYPESTDSKKESMD | not soluble
12 | MTASDYEWQPDILGKDFQQLVIPLGADPISEGGEDDIFATLVRYAPADQPTPTSRPAVLFVHGMTDYFFQRHVAQWFHQHGFSVYALDLRKCGRSHRNNQSWHYISDISRYFEELDRAKSIIEELHPTIFPIGHSTGGLILAHWLDGLRQCETLHPTIPGAILNSPWLDMMTPATVTRALRPILTRAARRFPHASFGRSKEGTYGRSLHASRSGEWDYDISFKPLTGHLRKLGWLHAIDTAQSLVHNDAVDCGIPLLMLCSDHSSLRGKFSPRAQVTDTVLDVEQMKRWAPHLSEYVSVCTIRGAVHDVYLSQKPARLQALETSVRWMNRILSEHTI | not soluble
13 | MGSDKIHHHHHHMIENVNYARTLLTEEEVGHIVQSGTIVRYKKGQIIFSESDAADRVYFVKEGYVRIFRITQYGRRVTVGCIRSPGQLMGLAETLYGGDRTCFASAIDDVTIVVIRHQQFLDLLEKHPAIAIKVTITLAIRMREAEGIIEEMVCFQVPGRLAQLLIKMAKRAGMETPRGTKISFRLTHEDIAYMIGTSRQNVTSLLNTFKYENSIAIEDKELYILDIEKLNSWVV | not soluble
14 | MRFAVLGSGSQGNGTLIVSADTCVLVDCGFSLRETERRLLRLGVDPAQLSAILVTHEHADHVHGVGLLSRRYNLPVYLSQGTLRGMRKPVEVAGFVRGGESLQIGALRIDVIAVAHDAQEPTQFVFSDGQRRFGLLTDLGSYCAGVLDGYRGLDALMIEANHCRDRLARGYYPYFLKQRVGGDLGHLNNHQAASLVAELGWQDLQHLVLAHLSSKNNLPQLARQCFVDTLGCDPDWLQLADQDSGLDWRHIALEHHHHHH | not soluble
15 | MSQPLNVAVVGATGSVGEALVGLLDERDFPLHRLHLLASAESAGQRMGFAESSLRVGDVDSFDFSSVGLAFFAAAAEVSRAHAERARAAGCSVIDLSGALEPSVAPPVMVSVNAERLASQAAPFLLSSPCAVAAELCEVLAPLLATLDCRQLNLTACLSVSSLGREGVKELARQTAELLNARPLEPRLFDRQIAFNLLAQVGAVDAEGHSAIERRIFAEVQALLGERIGPLNVTCIQAPVFFGDSLSVTLQCAEPVDLAAVTRVLDATKGIEWVGEGDYPTVVGDALGQDETYVGRVRAGQADPCQVNLWIVSDNVRKGAALNAVLLGELLIKHYL | soluble
16 | MAEELVLERCDLELETNGRDHHTADLCREKLVVRRGQPFWLTLHFEGRNYQASVDSLTFSVVTGPAPSQEAGTKARFPLRDAVEEGDWTATVVDQQDCTLSLQLTTPANAPIGLYRLSLEASTGYQGSSFVLGHFILLFNAWCPADAVYLDSEEERQEYVLTQQGFIYQGSAKFIKNIPWNFGQFQDGILDICLILLDVNPKFLKNAGRDCSRRSSPVYVGRVGSGMVNCNDDQGVLLGRWDNNYGDGVSPMSWIGSVDILRRWKNHGCQRVKYGQCWVFAAVACTVLRCLGIPTRVVTNYNSAHDQNSNLLIEYFRNEFGEIQGDKSEMIWNFHCWVESWMTRPDLQPGYEGWQALDPTPQEKSEGTYCCGPVPVRAIKEGDLSTKYDAPFVFAEVNADVVDWIQQDDGSVHKSINRSLIVGLKISTKSVGRDEREDITHTYKYPEGSSEEREAFTRANHLNKLAEKEETGMAMRIRVGQSMNMGSDFDVFAHITNNTAEEYVCRLLLCARTVSYNGILGPECGTKYLLNLTLEPFSEKSVPLCILYEKYRDCLTESNLIKVRALLVEPVINSYLLAERDLYLENPEIKIRILGEPKQKRKLVAEVSLQNPLPVALEGCTFTVEGAGLTEEQKTVEIPDPVEAGEEVKVRMDLVPLHMGLHKLVVNFESDKLKAVKGFRNVIIGPA | soluble
17 | MKFGTVWKYYFTESLLKATIRTPSQLNLAPNALRPVLDQLCRLFPQNPTVQIRPIRLAGVRGEEIKAQASATQLIFHIHGGAFFLGSLNTHRALMTDLAARTQMQVIHVDYPLAPEHPYPEAIDAIFDVYQALLVQGIKPKDIIISGDSCGANLALALCLRLKQQPELMPSGLILMSPYLDLTLTSESLRFNQKHDALLSIEALQAGIKHYLTDDIQPGDPRVSPLFDDLDGLPPTLVQVGSKEILLDDSKRFREKAEQADVKVHFKLYTGMWHNFQMFNAWFPEAKQALADIAEFAHSLDLD | soluble
18 | MANPRGFCAGVDRAISIVENALAIYGAPIYVRHEVVHNRYVVDSLRERGAIFIEQISEVPDGAILIFSAHGVSQAVRNEAKSRDLTVFDATCPLVTKVHMEVARASRRGEESILIGHAGHPEVEGTMGQYSNPEGGMYLVESPDDVWKLTVKNEEKLSFMTQTTLSVDDTSDVIDALRKRFPKIVGPRKDDICYATTNRQEAVRALAEQAEVVLVVGSKNSSNSNRLAELAQRMGKHAFLIDDAKDIQEEWVKEVKCVGVTAGASAPDILVQNVVARLQQLGGGEAIPLEGREENIVFEVPKELRVDIREVD | not soluble
19 | DWVIPPINLPENSRGPFPQELVRIRSDRDKNLSLRYSVTGPGADQPPTGIFIINPISGQLSVTKPLDRELIARFHLRAHAVDINGNQVENPIDIVINVIDMNDNRPEFLHQVWNGSVPEGSKPGTYVMTVTAIDADDPNALNGMLRYRIVSQAPSTPSPNMFTINNETGDIITVAAGLDREKVQQYTLIIQATDMEGNPTYGLSNTATAVITVTD | soluble
